Starred links: 1 amine or outer side, 2 acyl side, 3 side chain; linkers in the order of their positions; H or OH if unused. Non-standard residues stand in square brackets, D forms with d. No end group written: not given here. *: point of attachment. 5‑TAMRA = CN(C)c1ccc2c(-c3ccc(C(=O)*)cc3C(=O)[O-])c3ccc(N(C)C)cc3[o+]c2c1; Propanoyl(3-triazol-4-yl) = O=C(CCc1cn([*:1])nn1)[*:2]; Gly(piperidin-4-yl) = N[C@H](C(=O)O)C1CCNCC1; Pent4ynoyl = C#CCCC(=O)*; Pra = C#CC[C@H](N)C(=O)O

For experiment [1], the target named is T1, human neurotensin receptor type 1 (hNTS1R), endogenous in HT-29 colon carcinoma cells (human (endogenous in HT-29), UniProt P30989 1-418).
T1 construct: human neurotensin receptor type 1 (hNTS1R), endogenously expressed in HT-29 colon carcinoma cells; also called HT-29 cells; source: endogenous, intact HT-29 colon carcinoma cells
Put plainly: radioligand binding; competition with [^3H]UR-MK300 at intact hNTS1R-expressing HT-29 cells, 23 ± 1 °C; pIC50 converted to pKi (Cheng–Prusoff). The note with it: one partner purified.

The target of experiment [2] is T2, human neurotensin receptor type 1 (hNTS1R), stably expressed in CHO cells (human, UniProt P30989 1-418). The experiment can be described thus: cell-based or functional assay.
Experiment [3] has as its target T2, human neurotensin receptor type 1 …. Put plainly: radioligand binding; association (1.8 nM [^3H]13, 1.2 nM [^3H]18; 96-well plates; biphasic fit) and dissociation (50 mL falcon tubes, started with 25 μM NT(8–13)) at intact suspended CHO-hNTS1R cells, DPBS1, 23 ± 1 °C; kon(fast) and Kd(kin) calculated. The following applies: one partner purified.
Experiment [4] has as its target T1, human neurotensin receptor type 1 …. Put plainly: radioligand binding; saturation binding at intact adherent cells (CHO-hNTS1R or HT-29), DPBS1 with 1% BSA, 23 ± 1 °C; radioligand 1:1 diluted with its cold analogue. The note with it: one partner purified.
Experiment [5] addresses T2, human neurotensin receptor type 1 …. The description is as above. The following applies: one partner purified.
The target is the same in experiment [6]. The experiment can be described thus: radioligand binding; saturation binding at intact suspended CHO-hNTS1R cells, 96-well plates, filtration, DPBS1 with 1% BSA, 23 ± 1 °C. The following applies: one partner purified.
Experiment [7] has the same target. Put plainly: radioligand binding; association (1.3 nM [^3H]13, 1.1 nM [^3H]18; biphasic fit) and dissociation (started with 1 μM NT(8–13)) at intact adherent CHO-hNTS1R cells, DPBS1, 23 ± 1 °C; kon(fast) and Kd(kin) calculated. The following applies: one partner purified.
The target in experiment [8] is T3, human neurotensin receptor type 2 (hNTS2R) in homogenates of HEK293T cells (human, UniProt O95665 1-410).
T3 construct: human neurotensin receptor type 2 (hNTS2R); also called HEK293T-hNTS2R cells; source: HEK293T, transiently transfected, homogenates
The experiment can be described thus: radioligand binding; competition with [^3H]UR-MK300 at homogenates of HEK293T cells transiently transfected with hNTS2R; Tris buffer (50 mM Tris HCl, 1 mM EDTA, pH 7.4) with 0.1% BSA. The note with it: one partner purified.

In experiment [9] the target is T4, hNTS1R displayed on budded baculovirus particles (NTS1R-BBV) (human, UniProt P30989 1-418).
T4 construct: human neurotensin receptor type 1 (hNTS1R) from pcDNA3.1-hNTS1-NlucC, subcloned into pIMACE-CMVintP10; also called hNTS1R-displaying BBVs; hNTS1R-Nluc
Put plainly: fluorescence polarisation; fluorescence anisotropy, equilibrium binding: fixed ligand (0.3 or 1 nM), increasing amounts of hNTS1R-displaying BBVs, signal at 10 min, 27 °C, DPBS2; unspecific binding with 1 μM SR142948. The note with it: one partner purified. Background: Fluorescence polarisation rises when a labelled molecule tumbles more slowly, as on binding a larger partner.

Experiment [10] addresses T2, human neurotensin receptor type 1 …. Put plainly: high-content imaging (HCI) of fluorescent ligand on cells; association (2.5 nM ligand) and dissociation (started with 1 μM NT(8–13)) at intact adherent CHO-hNTS1R cells, DPBS1, 23 ± 1 °C; kon = (kobs – koff)/[FL], Kd(kin) = koff/kon. The following applies: one partner purified.
The target of experiment [11] is T1, human neurotensin receptor type 1 …. Put plainly: high-content imaging (HCI) of fluorescent ligand on cells; equilibrium saturation binding at intact adherent CHO-hNTS1R or HT-29 cells, DPBS1 with 0.1% BSA, 23 ± 1 °C, washing step before reading; unspecific binding with 1 μM NT(8–13). The following applies: one partner purified.
For experiment [12], the target named is T2, human neurotensin receptor type 1 …. The experiment is described as above. The following applies: one partner purified.
The target of experiment [13] is T4, hNTS1R displayed on budded baculovirus …. Put plainly: fluorescence polarisation; fluorescence anisotropy, association and dissociation (started with 1 μM SR142948) at hNTS1R-displaying BBVs, 27 °C, DPBS2; kon and Kd(kin) from a fit with koff constrained. The note with it: one partner purified.
In experiment [14] the target is T1, human neurotensin receptor type 1 …. The experiment can be described thus: flow cytometry on cells; equilibrium saturation binding at intact suspended CHO-hNTS1R or HT-29 cells, 96-well plates, DPBS1, 23 ± 1 °C, homogeneous; unspecific binding with 1 μM NT(8–13). The following applies: one partner purified. (In general: In flow cytometry, cells or beads pass a laser one at a time.)

Experiment [15] deals with T2, human neurotensin receptor type 1 …. Described as above. The note with it: one partner purified.
For experiment [16] the target is unchanged. Put plainly: flow cytometry on cells; association (1 nM ligand) and dissociation (10 nM preincubation, started with ca. 25 μM NT(8–13)) at intact suspended CHO-hNTS1R cells, 5 mL tubes, DPBS1, 23 ± 1 °C; kon and Kd(kin) calculated. The following applies: one partner purified.
Experiment [17] shares this target. Put plainly: radioligand binding; association (2.5 nM) and dissociation (12 nM preincubation, 30 min) at membranes of CHO-hNTS1R cells, DPBS1 with 50 μM GppNHp and 100 μg/mL saponin, 23 °C; kon and Kd(kin) calculated. The following applies: one partner purified.
Experiment [18] shares this target. The experiment can be described thus: radioligand binding; saturation binding at membranes of CHO-hNTS1R cells, DPBS1 with 50 μM GppNHp and 100 μg/mL saponin, 23 °C. The note with it: one partner purified.

T2 sequence (P30989 whole entry): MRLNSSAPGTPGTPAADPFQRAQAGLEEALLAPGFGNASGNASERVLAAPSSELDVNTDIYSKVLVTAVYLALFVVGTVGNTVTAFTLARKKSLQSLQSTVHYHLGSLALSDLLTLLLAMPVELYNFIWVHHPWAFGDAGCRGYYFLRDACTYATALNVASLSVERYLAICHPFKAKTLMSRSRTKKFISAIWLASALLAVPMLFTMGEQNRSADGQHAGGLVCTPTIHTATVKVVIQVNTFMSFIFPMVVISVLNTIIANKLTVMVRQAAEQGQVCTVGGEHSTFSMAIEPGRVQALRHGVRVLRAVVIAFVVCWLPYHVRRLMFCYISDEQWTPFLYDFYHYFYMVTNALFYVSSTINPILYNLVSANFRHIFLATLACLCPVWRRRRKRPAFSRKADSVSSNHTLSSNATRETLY
T4 sequence (P30989 whole entry): as above
T1 sequence (P30989 whole entry): as above
T3 sequence (O95665 whole entry): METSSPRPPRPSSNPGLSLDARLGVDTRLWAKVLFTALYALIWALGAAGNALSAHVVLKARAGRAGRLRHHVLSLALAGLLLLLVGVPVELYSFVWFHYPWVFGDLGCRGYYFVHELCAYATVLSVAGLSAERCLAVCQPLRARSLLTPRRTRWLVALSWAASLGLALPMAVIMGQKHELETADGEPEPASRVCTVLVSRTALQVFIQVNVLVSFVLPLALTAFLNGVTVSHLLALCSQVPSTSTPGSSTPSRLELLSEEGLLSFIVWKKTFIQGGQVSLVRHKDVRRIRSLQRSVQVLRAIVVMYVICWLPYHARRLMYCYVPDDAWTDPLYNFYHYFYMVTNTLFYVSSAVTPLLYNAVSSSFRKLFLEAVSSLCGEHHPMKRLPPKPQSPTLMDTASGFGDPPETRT

B1: N^α-(Pent-4-ynoyl)-2-(piperidin-4-yl)-Gly-Pro-N^ω-[(4-aminobutyl)aminocarbonyl]Arg-Arg-Pro-Tyr-Ile-Leu (6) (peptide)
chain: XPRRPYIL
modifications: N-terminal N^α-(pent-4-ynoyl); position 6 (X) = 2-(piperidin-4-yl)-Gly (pipGly); Arg8 = N^ω-[(4-aminobutyl)aminocarbonyl]Arg
In experiment [1], B1 gave an inhibition constant Ki of 0.64 nM. The “EC50 of NTS1R agonism, Fura-2 Ca^2+ assay at CHO-NTS1R cells” value (“EC50 of NTS1R agonism” for short) in experiment [2] stood at 0.0065 nM.

B2: N^α-(Pent-4-ynoyl)-2-(piperidin-4-yl)-Gly-Pro-N^ω-[(4-aminobutyl)aminocarbonyl]Arg-Arg-Pro-β,β-dimethyl-L-Tyr-Ile-Leu (10a) (peptide)
chain: XPRRPYIL
modifications: N-terminal N^α-(pent-4-ynoyl); position 6 (X) = 2-(piperidin-4-yl)-Gly (pipGly); Arg8 = N^ω-[(4-aminobutyl)aminocarbonyl]Arg; position 11 = β,β-dimethyl-L-Tyr
In the case of B2, in [1], the Ki stood at 1.1 nM. Also, in [2], the “EC50 of NTS1R agonism” value turned out to be 0.32 nM.

B3: [^3H]18, tritiated analogue of the Cy3B-labeled peptide 18 (peptide)
chain: XPRRPYIL
modifications: as 18, with a [^3H]propionyl instead of the propionyl group at the N^ω-carbamoylated Arg8; N-terminal Cy3B through a triazolylpropanoyl group; position 6 (X) = pipGly; position 11 = …
B3: the koff in experiment [3] is 0.0005 s⁻¹; in [7] it was 0.000433 s⁻¹. Moreover, the Kd in [4] came to 1.9 nM; in experiment [5] it was 1.1 nM; in [6], 1.2 nM.

B4: N^α-(4-Aminobutanoyl)-2-(prop-2-ynyl)-Gly-2-(piperidin-4-yl)-Gly-Pro-Arg-Arg-Pro-Tyr-Ile-Leu (9) (peptide)
chain: {4‑aminobutanoyl}-[Pra][Gly(piperidin-4-yl)]PRRPYIL
Turning to B4, the Ki in [1] is 0.33 nM.

B5: 5-TAMRA-labeled, propionylated NT(6–13) derivative 14 (peptide)
peptide: {5‑TAMRA-Propanoyl(3-triazol-4-yl)}-K(propanoyl)PRRPYIL
notes: neurotensin NT(6–13), printed in three-letter code; numbers count on: the mature neurotensin; also called peptide 14; source: synthetic peptide (from 7 by propionylation and click reaction, preparative HPLC)
On to B5, for which, in experiment [1], the Ki amounted to 1.5 nM.

B6: N^α-(Pent-4-ynoyl)-2-(piperidin-4-yl)-Gly-Pro-N^ω-[(4-aminobutyl)aminocarbonyl]Arg-Arg-Pro-β,β-dimethyl-D-Tyr-Ile-Leu (10b) (peptide)
chain: XPRRPYIL
modifications: N-terminal N^α-(pent-4-ynoyl); position 6 (X) = 2-(piperidin-4-yl)-Gly (pipGly); Arg8 = N^ω-[(4-aminobutyl)aminocarbonyl]Arg; position 11 = β,β-dimethyl-D-Tyr
As to B6, affinity in experiment [1] was put at a Ki of 140 nM.

B7: 5-TAMRA-labeled, propionylated NT(6–13) derivative 13 (UR-FE051) (peptide)
chain: XPRRPYIL
modifications: N-terminus: 5-TAMRA attached through a 3-(1H-1,2,3-triazol-4-yl)propanoyl group; position 6 (X) = 2-(piperidin-4-yl)-Gly (pipGly); Arg8 = N^ω-[(4-(N-propanoyl)aminobutyl)aminocarbonyl]Arg
Consider B7, for which the values for the Ki in experiment [1] and in [8] were 1.1 nM and 2.4 nM, respectively. Also, the “EC50 of NTS1R agonism” value in [2] turned out to be 0.05 nM. Moreover, the Kd in [9] came out at 1.3 nM; in [10], 2.8 nM; in [11], 4.7 nM; in [12], 1.1 nM; in experiment [13], 1 nM; in experiment [14] it was 0.25 nM. Further, the Kd in experiment [15] is 2.6 nM; in [16], 0.041 nM. Besides, the koff in experiment [10] is 0.000733 s⁻¹; in experiment [13] it was 0.0102 s⁻¹; in experiment [16] it was 0.000333 s⁻¹. Besides, the figures for the kon in experiment [10], in experiment [13] and in experiment [16] were 267000 M⁻¹ s⁻¹, 1.67e+07 M⁻¹ s⁻¹ and 8e+06 M⁻¹ s⁻¹, respectively.

B8: 5-TAMRA-labeled, propionylated NT(6–13) derivative 15 (peptide)
peptide: {5‑TAMRA-Propanoyl(3-triazol-4-yl)}-[dK](propanoyl)PRRPYIL
notes: neurotensin NT(6–13) with D-Lys at position 6, printed in three-letter code; numbers count on: the mature neurotensin; also called peptide 15; source: synthetic peptide (from 8 by propionylation and click reaction, preparative HPLC)
In turn, B8 came in with a Ki in experiment [1] of 3 nM.

B9: [^3H]13, tritiated analogue of the 5-TAMRA-labeled peptide 13 (peptide)
chain: XPRRPYIL
modifications: as 13, with a [^3H]propionyl instead of the propionyl group at the N^ω-carbamoylated Arg8; N-terminal 5-TAMRA through a triazolylpropanoyl group; position 6 (X) = pipGly
Take B9: the Kd was 2.7 nM in [17]; 6.2 nM in experiment [18]; 1.2 nM in experiment [4]; 1.3 nM in experiment [5]; 1.8 nM in experiment [6]. Further, the koff was 0.00617 s⁻¹ in [17], 0.0006 s⁻¹ in experiment [3] and 0.000233 s⁻¹ in experiment [7]. In addition, the kon in [17] was 2.17e+06 M⁻¹ s⁻¹.

B10: N^α-(Pent-4-ynoyl)-Lys-Pro-Arg-Arg-Pro-Tyr-Ile-Leu (7) (peptide)
peptide: Pent4ynoyl-KPRRPYIL
notes: neurotensin NT(6–13), printed in three-letter code; numbers count on: the mature neurotensin; also called peptide 7; source: synthetic peptide (SPPS, preparative HPLC)
For B10, the inhibition constant (Ki) in experiment [1] was found to be 0.54 nM.

B11: 5-TAMRA-labeled, propionylated NT(6–13) derivative 16 (peptide)
chain: {4‑(N-propanoyl)aminobutanoyl}-X[Gly(piperidin-4-yl)]PRRPYIL
modifications: not fully specified (residue 1); printed as *N*^α^-[(4-(*N*-Propanoyl)aminobutanoyl)]-2-(1-(1-*N*-((1-carboxylato-2-(6-(dimethylamino)-3-(dimethyliminio)-3*H*-xanthen-9-yl)phen-5-yl)1-oxomethyl)aminoprop-3-yl-1*H*-1,2,3-triazol-4-yl)methyl)-Gly-2-(piperidin-4-yl)-Gly-Pro-Arg-Arg-Pro-Tyr-Ile-Leu
Consider B11, for which, in [1], affinity was put at a Ki of 0.77 nM.

B12: N^α-(Pent-4-ynoyl)-D-Lys-Pro-Arg-Arg-Pro-Tyr-Ile-Leu (8) (peptide)
peptide: Pent4ynoyl-[dK]PRRPYIL
notes: neurotensin NT(6–13) with D-Lys at position 6, printed in three-letter code; numbers count on: the mature neurotensin; also called peptide 8; source: synthetic peptide (SPPS, preparative HPLC)
B12: in experiment [1], affinity was put at a Ki of 0.85 nM.

One may read the Ki as a measure of affinity in units of concentration, obtained from inhibition or displacement. The koff is a measure of how fast the partners let go of each other. As a reminder, the Kd is the equilibrium constant for the complex coming apart. For orientation: kon means a measure of how fast the partners come together.
